Bridge positions count the residues as written; N and C are the ends. Ends that are not written are not given here.
B1: SEQ ID NO: 33 (peptide)
peptide: Ac-TQDAEDNTASH-NH2
B2: SEQ ID NO: 36 (peptide)
peptide: Ac-TQDAEDNTVSFLQ-NH2
B3: SEQ ID NO: 17 (peptide)
peptide: Ac-TQDAEDNTV-NH2
B4: SEQ ID NO: 03 (peptide)
peptide: Ac-TQDPED-NH2
B5: SEQ ID NO: 24 (peptide)
peptide: Ac-TQDAEDNTAS-NH2
B6: SEQ ID NO: 26 (peptide)
peptide: Ac-TQDPEDNTAS-NH2
B7: SEQ ID NO: 46 (peptide)
peptide: TQDPEDNTAS
modifications: Head-to-tail cyclization
notes: cyclic peptide
B8: SEQ ID NO: 25 (peptide)
peptide: Ac-TQDAEDPTAS-NH2
B9: SEQ ID NO: 42 (peptide)
peptide: TQDAEDNK
modifications: lactam 3-8
B10: SEQ ID NO: 47 (peptide)
peptide: Ac-TQDPAED-NH2
B11: SEQ ID NO: 41 (peptide)
peptide: TQDPEDN
modifications: Head-to-tail cyclization
B12: SEQ ID NO: 50 (peptide)
peptide: YRVRFLAKENVTQDAEDN
notes: Printed as 'Without modification'; also called Positive control group
B13: SEQ ID NO: 31 (peptide)
peptide: Ac-TQDAEDNTASF-NH2
B14: SEQ ID NO: 05 (peptide)
peptide: Ac-QDAEDN-NH2
B15: SEQ ID NO: 06 (peptide)
peptide: Ac-TQDAEDN-NH2
notes: also called TQDAEDN
B16: SEQ ID NO: 14 (peptide)
peptide: Ac-TQDPEDN-NH2
notes: also called TQDPEDN
B17: SEQ ID NO: 04 (peptide)
peptide: Ac-TQDAED-NH2
B18: SEQ ID NO: 45 (peptide)
peptide: QDAEDNT
modifications: Head-to-tail cyclization
notes: cyclic peptide; also called QDAEDNT; cyclo[Gln-Asp-Ala-Glu-Asp-Asn-Thr]
B19: SEQ ID NO: 40 (peptide)
peptide: TQDAEDN
modifications: Head-to-tail cyclization
notes: cyclic peptide; also called TQDAEDN; cyclo[Thr-Gln-Asp-Ala-Glu-Asp-Asn]
B20: SEQ ID NO: 22 (peptide)
peptide: Ac-TQDAEDPTA-NH2
B21: SEQ ID NO: 15 (peptide)
peptide: Ac-TQDAEDNT-NH2
B22: SEQ ID NO: 23 (peptide)
peptide: Ac-QDAEDNTAS-NH2
B23: SEQ ID NO: 49 (peptide)
peptide: Ac-TQDAEDNTQD-NH2
B24: SEQ ID NO: 48 (peptide)
peptide: Ac-TQDPAEDN-NH2

target: TSP-1 protein expressed by PMA-differentiated THP-1 macrophage-like cells (UniProt P07996 19-1170); test: cell-based or functional assay
Sequence (P07996 19-1170 limits assumed): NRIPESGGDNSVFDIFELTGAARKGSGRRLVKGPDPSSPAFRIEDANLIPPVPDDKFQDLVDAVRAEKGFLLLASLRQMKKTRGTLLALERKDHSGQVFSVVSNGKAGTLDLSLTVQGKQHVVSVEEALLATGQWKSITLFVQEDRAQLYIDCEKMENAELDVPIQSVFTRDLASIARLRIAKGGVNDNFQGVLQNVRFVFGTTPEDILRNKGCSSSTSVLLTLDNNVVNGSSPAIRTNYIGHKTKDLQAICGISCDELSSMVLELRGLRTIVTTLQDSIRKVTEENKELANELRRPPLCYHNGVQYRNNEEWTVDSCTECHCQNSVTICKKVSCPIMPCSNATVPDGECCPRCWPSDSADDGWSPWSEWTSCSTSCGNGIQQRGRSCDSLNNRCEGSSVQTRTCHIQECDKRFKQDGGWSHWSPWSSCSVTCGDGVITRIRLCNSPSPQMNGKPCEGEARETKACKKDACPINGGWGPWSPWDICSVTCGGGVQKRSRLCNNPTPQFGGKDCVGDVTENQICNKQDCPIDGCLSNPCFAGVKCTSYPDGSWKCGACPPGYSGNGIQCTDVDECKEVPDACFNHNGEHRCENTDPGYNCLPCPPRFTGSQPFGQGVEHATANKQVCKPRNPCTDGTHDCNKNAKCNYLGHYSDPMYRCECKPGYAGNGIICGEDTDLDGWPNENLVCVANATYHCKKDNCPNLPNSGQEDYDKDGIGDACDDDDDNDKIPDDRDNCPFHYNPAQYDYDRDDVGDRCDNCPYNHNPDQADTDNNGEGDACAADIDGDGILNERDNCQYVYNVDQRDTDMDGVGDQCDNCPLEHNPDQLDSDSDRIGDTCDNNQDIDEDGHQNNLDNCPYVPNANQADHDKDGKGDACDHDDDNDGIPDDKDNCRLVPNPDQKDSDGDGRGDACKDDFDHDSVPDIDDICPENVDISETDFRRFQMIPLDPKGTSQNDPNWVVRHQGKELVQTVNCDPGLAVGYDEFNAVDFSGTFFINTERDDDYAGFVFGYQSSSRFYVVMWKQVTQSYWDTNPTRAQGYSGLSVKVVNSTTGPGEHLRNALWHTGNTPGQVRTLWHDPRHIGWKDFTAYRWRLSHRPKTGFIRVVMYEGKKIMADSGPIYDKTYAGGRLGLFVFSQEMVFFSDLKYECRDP

Binder | Mean (relative fluorescence intensity), 293-TGFβ Res reporter cells
B1 | 0.67 ratio to negative control
B2 | 0.83 ratio to negative control
B3 | 0.78 ratio to negative control
B4 | 0.7 ratio to negative control
B5 | 0.57 ratio to negative control
B6 | 0.68 ratio to negative control
B7 | 0.69 ratio to negative control
B8 | 0.73 ratio to negative control
B9 | 0.67 ratio to negative control
B10 | 0.8 ratio to negative control
B11 | 0.62 ratio to negative control
B12 | 0.84 ratio to negative control
B13 | 0.79 ratio to negative control
B14 | 0.83 ratio to negative control
B15 | 0.65 ratio to negative control
B16 | 0.7 ratio to negative control
B17 | 0.77 ratio to negative control
B18 | 0.52 ratio to negative control
B19 | 0.77 ratio to negative control
B20 | 0.74 ratio to negative control

target: T1, TSP-1 protein (novoprotein, Catalog No. CU45) (UniProt P07996 19-1170, limits assumed); test: competition ELISA, TSP-1 coated, CD36-Fc 0.25 µg/mL as competitor, peptide 100 µM
T1 construct: Bought protein coated on the ELISA plate; also called Thrombospondin-1
Method: (§1) ELISA assay was performed to detect the ability of the polypeptides to block the binding of TSP-1 protein to CD36, a TSP-1 receptor protein. TSP-1 protein (novoprotein, Catalog No. CU45) was diluted to 2 μg/mL using 100 mM carbonate buffer and added to sample wells (100 μL/well) of a 96-well ELISA plate (Thermo, Catalog No. 437111), and incubated overnight at 4° C.; after washing the plate twice using 1×PBST wash solution, 200 μL of 1.5% BSA (Sigma, Catalog No. B2064) was added to each well, and incubated at 37° C. for 2 h; after washing the plate 3 times using 1×PBST wash solution, the analytes were added (100 μL/well, 3 replicate wells; for the control group, 0.25 μg/mL of Fc-tagged CD36 protein (R&D Systems, Catalog No. 1955-CD-050); and for the polypeptide-treated groups, a mixture containing Fc-tagged CD36 protein and polypeptide at final concentrations of 0.25 μg/mL and 100 μM, respectively), and incubated at 37° C. for 3 h. After washing the plate 5 times using 1×PBST wash solution, a 1:500 dilution solution of FITC-labeled anti-Fc-tagged antibody (Beyotime, Catalog No. A0556) was added, and incubated for 1 h at 37° C.; after washing the plate 5 times using 1×PBST wash solution, a multifunctional ELISA instrument (TECAN, model: Infinite 200 Pro) was used to detect the intensity of FITC fluorescence signal in each sample well. The ability of the polypeptides to block CD36 binding to TSP-1 protein (Table 2-1) was assessed by calculating the ratio of the fluorescence signal from the polypeptide-treated groups to that of the control group, allowing for the determination of the blocking rate of the polypeptides in inhibiting CD36 binding to TSP-1 protein, i.e., (fluorescence signal of the control group-fluorescence signal of the polypeptide-treated group)/fluorescence signal of the control group×100%. Based on the blocking rate results obtained at the single concentration and on the polypeptide molecule properties, the preferred polypeptide molecules were assayed for concentration dependence (at 0 μM, 0.5 μM, 1 μM, 5 μM, 10 μM, and 100 μM), and IC₅₀ values of the polypeptides for blocking CD36 binding to TSP-1 protein were determined to further assess the abilities of the preferred polypeptide molecules to block the binding of CD36 to TSP-1 (Table 2-2).

T1 sequence (P07996 19-1170 limits assumed): as above

Binder | Blocking rate (Mean, %) [%]
B1 | 21.4
B2 | 23.1
B5 | 32.6
B6 | 53.8
B7 | 56.1
B8 | 33
B12 | 23.4
B21 | 30.6
B15 | 17.7
B16 | 27.9
B18 | 46
B19 | 37.5
B20 | 40.9
B22 | 22.8
B23 | 30.2
B24 | 29.7

target: T1, TSP-1 protein (novoprotein, Catalog No. …); test: competition ELISA, TSP-1 coated, CD36-Fc as competitor, peptide 0-100 µM
Method: as §1

Binder | IC50 [µM]
B1 | 14.3
B2 | 4.85
B5 | 10.6
B6 | 3.4
B7 | 1.4
B8 | 7.4
B12 | 10.6
B21 | 5.65
B15 | 12.7
B16 | 4.76
B18 | 5.96
B19 | 7.7
B20 | 7.2
B22 | 22.9
B23 | 10.1
B24 | 11.7

— patent US20250388623A1 (CHENGDU BRILLIANT INSPIRATION BIOTHERAPEUTICS, published 2025)
